Results from US20180362665A1.

Columns and labels:
[1] = target: human ADAMTS13 (in normal human plasma) (human) (UniProt Q76LX8); test: cell-based or functional assay
[2] = target: human ADAMTS13 (in normal human plasma) (human) (UniProt Q76LX8); test: sandwich ELISA, antibody coated 10 to 0.02 µg/mL, constant 15% NHP, detection with biotinylated 17G2 and 19H4

Sequence of human ADAMTS13 (in normal human plasma) (human) (Q76LX8 75-1427): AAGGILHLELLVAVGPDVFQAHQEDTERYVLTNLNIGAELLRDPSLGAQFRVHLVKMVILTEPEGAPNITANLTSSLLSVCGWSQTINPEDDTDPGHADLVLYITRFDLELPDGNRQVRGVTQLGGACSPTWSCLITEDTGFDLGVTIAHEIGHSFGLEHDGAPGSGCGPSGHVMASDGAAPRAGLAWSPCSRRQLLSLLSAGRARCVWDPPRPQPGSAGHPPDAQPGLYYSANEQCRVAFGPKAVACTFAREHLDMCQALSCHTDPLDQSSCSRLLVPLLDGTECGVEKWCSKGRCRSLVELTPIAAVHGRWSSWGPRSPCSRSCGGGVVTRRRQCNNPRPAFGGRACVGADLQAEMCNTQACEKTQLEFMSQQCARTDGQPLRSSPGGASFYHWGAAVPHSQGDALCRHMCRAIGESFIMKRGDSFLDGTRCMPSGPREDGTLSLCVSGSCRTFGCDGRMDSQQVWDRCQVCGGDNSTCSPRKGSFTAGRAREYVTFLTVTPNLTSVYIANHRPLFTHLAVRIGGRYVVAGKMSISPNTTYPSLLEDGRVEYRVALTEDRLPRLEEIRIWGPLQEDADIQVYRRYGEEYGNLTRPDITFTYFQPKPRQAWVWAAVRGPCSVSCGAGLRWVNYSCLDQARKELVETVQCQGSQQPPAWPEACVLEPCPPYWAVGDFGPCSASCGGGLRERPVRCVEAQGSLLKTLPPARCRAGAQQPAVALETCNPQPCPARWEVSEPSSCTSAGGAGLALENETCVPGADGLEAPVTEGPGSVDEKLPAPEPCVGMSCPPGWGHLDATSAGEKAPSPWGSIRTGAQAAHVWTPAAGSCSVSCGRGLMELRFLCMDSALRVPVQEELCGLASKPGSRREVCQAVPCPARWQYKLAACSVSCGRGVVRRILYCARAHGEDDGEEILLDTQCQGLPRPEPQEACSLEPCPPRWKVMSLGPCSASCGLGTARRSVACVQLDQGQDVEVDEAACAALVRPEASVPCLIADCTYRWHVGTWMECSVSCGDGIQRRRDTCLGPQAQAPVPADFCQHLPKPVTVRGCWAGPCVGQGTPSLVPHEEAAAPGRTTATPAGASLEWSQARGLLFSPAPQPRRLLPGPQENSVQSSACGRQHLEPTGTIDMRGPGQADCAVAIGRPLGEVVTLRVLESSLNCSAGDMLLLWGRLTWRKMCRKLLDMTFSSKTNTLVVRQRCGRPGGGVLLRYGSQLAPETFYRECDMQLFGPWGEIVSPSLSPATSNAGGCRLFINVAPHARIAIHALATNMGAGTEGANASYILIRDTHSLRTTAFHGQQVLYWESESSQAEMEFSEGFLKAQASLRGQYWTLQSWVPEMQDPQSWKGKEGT

half maximal inhibitory concentration (IC50) of ADAMTS13 activity in normal human plasma, FRETS-VWF73 assay [1]: 0.47 µg/mL
half maximal binding (Kd) [2]: 0.51 µg/mL
B1: anti-ADAMTS13 monoclonal antibody 17C7 (antibody, V domains shown)
VH: EVQLVESGGDLVKSGGSLKLSCAASGFIFSNYAMSWVRQTPEKRLEWGATITTGGFYTFYSDSVKGRFTISRDNAKNTLYLQMSSLRSEDTAMYYCARHRYDDYYALDYWGQGTSVTVSS
VL: ENVLTQSPAIMSTSPGEKVTMTCNVSSSVSYMRWFQQKSSTSPKLWIYDTSKLASGVPGRFSGSGSGHSYSLTISSMEADDVATYYCFQGNGYPLTFGAGTKLELK
